What was measured:
[1] = molecular target: ShcA-pTyr^317 peptide DPSpYVNVQNL; conditions: peptide ShcA-pTyr^317 DPSpYVNVQNL; read-out: equilibrium dissociation constant (Kd); cited from earlier work
[2] = molecular target: Designed peptide GGpYGG; conditions: read-out: equilibrium dissociation constant (Kd); cited from earlier work
[3] = molecular target: MidT-pTyr^324 peptide EPQpYEEIPIYL; conditions: peptide MidT-pTyr^324 EPQpYEEIPIYL; read-out: equilibrium dissociation constant (Kd); cited from earlier work
[4] = molecular target: EGFR-pTyr^978 peptide PQRpYLVIQGD; conditions: peptide EGFR-pTyr^978 PQRpYLVIQGD; read-out: equilibrium dissociation constant (Kd); cited from earlier work
[5] = molecular target: EGFR-pTyr^1110 peptide NPVpYHNQPLN; conditions: peptide EGFR-pTyr^1110 NPVpYHNQPLN; read-out: equilibrium dissociation constant (Kd); cited from earlier work
[6] = molecular target: ShcA-pTyr^239 peptide DHQpYYNDFPG; conditions: peptide ShcA-pTyr^239 DHQpYYNDFPG; read-out: equilibrium dissociation constant (Kd); cited from earlier work
[7] = molecular target: RSKL-pTyr^423 peptide YQHpYDLDLKD; conditions: peptide RSKL-pTyr^423 YQHpYDLDLKD; read-out: equilibrium dissociation constant (Kd); cited from earlier work
[8] = test system: mixture of 54 different pTyr-including peptides derived from 54 TK activation loops; assay: Capture of pTyr-including peptides from a mixture of TK activation loop peptides, scheduled PRM; assay type: binding
Method: Equal molar amounts (10 nmole) of the wild-type (wt) human Src SH2 domain and the DM and TrM human Src SH2 Superbinders (SEQ ID NO: 14 and 5, respectively) expressed with His6 and GST tags were used to capture pTyr-including peptides from a mixture of 54 different pTyr-including peptides (10 pmole each) derived from 54 TK activation loops. The isolated peptides were identified by PRM and quantified based on the corresponding MS peak area. 1.8% of the eluted peptides were injected into a Q-Exactive (Thermo Fisher) preceded with a nano-LC system.
Shown are the amounts of pTyr-including peptides captured, based on the corresponding peak area of PRM signal, by each of the parent human Src SH2 domain and the DM and TrM human Src SH2 Superbinders.

[9] = molecular target: VEGFR1-pTyr^1213 peptide DVRpYVNAAKF; conditions: peptide VEGFR1-pTyr^1213 DVRpYVNAAKF; read-out: equilibrium dissociation constant (Kd); cited from earlier work

B1: Triple mutant: TrM human Src SH2 domain variant with Thr183Val, Cys188Ala and Lys206Leu; His6/GST-tagged form SEQ ID NO: 11 (protein)
chain: DSIQAEEWYFGKITRRESERLLLNAENPRGTFLVRESETVKGAYALSVSDFDNAKGLNVKHYLIRKLDSGGFYITSRTQFNSLQQLVAYYSKHADGLCHRLTTVCPTSK
modifications: SH2 protein domain; TrM human Src SH2 domain
In the case of B1, the Kd [1] is given as 7.5 nM, the Kd [2] is given as 510 nM and the Kd [3] is given as 3.8 nM. For the same molecule, the Kd [4] was 7.7 nM, the Kd [5] was 76 nM and the Kd [6] was 3.8 nM. For the same molecule, the Kd [7] was 13 nM, the “number of the 54 pTyr-including peptides captured / detected by PRM” value ([8]; 10 nmole SH2 domain, 10 pmole each peptide) was 54 and the “PRM signal peak area” value ([8]; BLK (pTyr389) IIDSEpYTAQEGAK, fragment ion b2) was 156,244. For the same molecule, the “PRM signal peak area” value ([8]; BMX (pTyr566) YVLDDQpYVSSVGTK, fragment ion b2) was 151,470, the “PRM signal peak area” value ([8]; BTK (pTyr551) YVLDDEpYTSSVGSK, fragment ion b2) was 1,311,693 and the “PRM signal peak area” value ([8]; DDR1 (pTyr796/797) NLYAGDpYpYR, fragment ion b2) was 337,871. For the same molecule, the “PRM signal peak area” value ([8]; DDR2 (pTyr740/741) NLYSGDpYpYR, fragment ion y6) was 184,684, the “PRM signal peak area” value ([8]; EPHA1 (pTyr781) LLDDFDGTpYETQGGK, fragment ion y9) was 188,365 and the “PRM signal peak area” value ([8]; EPHA2 (pTyr772) VLEDDPEATpYTTSGGK, fragment ion y11) was 347,030. For the same molecule, the “PRM signal peak area” value ([8]; EPHA3 (pTyr779) VLEDDPEAApYTTR, fragment ion y8) was 394,218, the “PRM signal peak area” value ([8]; EPHA6 (pTyr830) VLEDDPEAApYTTTGGK, fragment ion b2) was 287,653 and the “PRM signal peak area” value ([8]; EPHA8 (pTyr793) VLEDDPDAApYTTTGGK, fragment ion y11) was 585,234. For the same molecule, the “PRM signal peak area” value ([8]; EPHB1 (pTyr778) YLQDDTSDPTpYTSSLGGK, fragment ion y10) was 205,974, the “PRM signal peak area” value ([8]; EPHB2 (pTyr780) FLEDDTSDPTpYTSALGGK, fragment ion Y3) was 215,302 and the “PRM signal peak area” value ([8]; EPHB3 (pTyr792) FLEDDPSDPTpYTSSLGGK, fragment ion y10) was 260,454. The “PRM signal peak area” value ([8]; EPHB4 (pTyr774) FLEENSSDPTpYTSSLGGK, fragment ion y10) was 134,156, the “PRM signal peak area” value ([8]; ERBB2 (pTyr877) LLDIDETEpYHADGGK, fragment ion b3) was 42,655 and the “PRM signal peak area” value ([8]; ERBB3 (pTyr866) QLLpYSEAK, fragment ion y2) was 164,128. The “PRM signal peak area” value ([8]; FER (pTyr714) QEDGGVpYSSSGLK, fragment ion y7) was 27,417, the “PRM signal peak area” value ([8]; FES (pTyr713) EEADGVpYAASGGLR, fragment ion y8) was 25,101 and the “PRM signal peak area” value ([8]; FGFR1 (pTyr653/654) DIHHIDpYpYK, fragment ion b6) was 51,243. For the same molecule, the “PRM signal peak area” value ([8]; FGFR2 (pTyr656/657) DINNIDpYpYK, fragment ion y4) was 87,143, the “PRM signal peak area” value ([8]; FGFR3 (pTyr647/648) DVHNLDpYpYK, fragment ion b3) was 258,435 and the “PRM signal peak area” value ([8]; FGFR4 (pTyr642/643) GVHHIDpYpYK, fragment ion b3) was 36,105. The “PRM signal peak area” value ([8]; FRK (pTyr387) VDNEDIpYESR, fragment ion y6) was 290,546, the “PRM signal peak area” value ([8]; GSK3 (pTyr279/216) GEPNVSpYICSR, fragment ion y6) was 48,337 and the “PRM signal peak area” value ([8]; HCK (pTyr411) VIEDNEpYTAR, fragment ion b2) was 383,521. For the same molecule, the “PRM signal peak area” value ([8]; INSRR (pTyr1145/1146) DVYETDpYpYR, fragment ion y5) was 20,796, the “PRM signal peak area” value ([8]; ITK (pTyr512) FVLDDQpYTSSTGTK, fragment ion y11) was 403,125 and the “PRM signal peak area” value ([8]; JAK1 (pTyr1034/1035) EpYpYTVK, fragment ion y2) was 109,611. The “PRM signal peak area” value ([8]; JAK2 (pTyr221) IQDpYHILTR, fragment ion Y3) was 85,513, the “PRM signal peak area” value ([8]; JAK3 (pTyr980/981) DpYpYVVR, fragment ion y2) was 19,712 and the “PRM signal peak area” value ([8]; KIT (pTyr823) NDSNpYVVK, fragment ion b2) was 234,665. For the same molecule, the “PRM signal peak area” value ([8]; LMTK2 (pTyr295) EDpYIETDDK, fragment ion b2) was 20,896, the “PRM signal peak area” value ([8]; LMTK3 (pTyr296/297) EDpYpYLTPER, fragment ion y3) was 375,974 and the “PRM signal peak area” value ([8]; MERTK (pTyr753/754) IYSGDpYpYR, fragment ion b2) was 26,483. The “PRM signal peak area” value ([8]; MET (pTyr1234/1235) EpYpYSVHNK, fragment ion y2) was 111,218, the “PRM signal peak area” value ([8]; MUSK (pTyr755/756) NIYSADpYpYK, fragment ion y2) was 178,086 and the “PRM signal peak area” value ([8]; NTRK1 (pTyr680/681) DIYSTDpYpYR, fragment ion b2) was 103,368. The “PRM signal peak area” value ([8]; NTRK2 (pTyr706/707) DVYSTDpYpYR, fragment ion y4) was 114,762, the “PRM signal peak area” value ([8]; PGFRB (pTyr857) DSNpYISK, fragment ion y2) was 398,271 and the “PRM signal peak area” value ([8]; PTK7 (pTyr960/961) DVYNSEpYpYHFR, fragment ion b2) was 8,863. The “PRM signal peak area” value ([8]; RET (pTyr905) DVYEEDSpYVK, fragment ion b2) was 882,529, the “PRM signal peak area” value ([8]; RON (pTyr1238/1239) EpYpYSVQQHR, fragment ion y4) was 44,290 and the “PRM signal peak area” value ([8]; ROR1 (pTyr645/646) EIYSADpYpYR, fragment ion y6) was 177,244. For the same molecule, the “PRM signal peak area” value ([8]; ROR2 (pTyr645/646) EVYAADpYpYK, fragment ion y5) was 334,295, the “PRM signal peak area” value ([8]; SRC (pTyr419) LIEDNEpYTAR, fragment ion b2) was 99,515 and the “PRM signal peak area” value ([8]; SRMS (pTyr380) DDIpYSPSSSSK, fragment ion y8) was 478,598. For the same molecule, the “PRM signal peak area” value ([8]; TEC (pTyr519) YVLDDQpYTSSSGAK, fragment ion b2) was 781,110, the “PRM signal peak area” value ([8]; TIE1 (pTyr1007) GEEVpYVK, fragment ion b2) was 409,242 and the “PRM signal peak area” value ([8]; TIE2 (pTyr992) GQEVpYVK, fragment ion b2) was 209,701. For the same molecule, the “PRM signal peak area” value ([8]; TXK (pTyr420) YVLDDEpYVSSFGAK, fragment ion b2) was 271,650, the “PRM signal peak area” value ([8]; TYK2 (pTyr1054/1055) AVPEGHEpYpYR, fragment ion y6) was 53,473 and the “PRM signal peak area” value ([8]; VGFR1 (pTyr1053) NPDpYVR, fragment ion y3) was 158,244. The “PRM signal peak area” value ([8]; VGFR2 (pTyr1059) DPDpYVR, fragment ion Y3) was 196,659 and the Kd [9] was 23 nM.

From US11274129B2, “Methods for protein tyrosine phosphorylation profiling with variant SH2 domains” (priority 2016, dated 2022)
